# Laboratory results published in patent publication US20240376214A1, “ANTI-C-MET ANTIBODIES AND ANTIBODY-DRUG CONJUGATES” (BYONDIS B.V., priority 2021, published 2024).
# Where a chain is given by its changes, count along the chain named. Numbers in names are those of the source.
# B1: ADC3b (antibody, human IgG1, kappa, V domains shown)
# VH: QVQLVQSGAEVKKPGASVKVSCKASGYTFTDYYLNWVRQACGQGLEWMGLIFPGNDKTEYSEKFKGRVTLTTDTSISTAYMELSSLTSDDTALYYCSGGDYGGFVYWGQGTLVTVSS
# VL: DIQMTQSPSSLSASVGDRVTISCGASENIYGALNWYQQQPGKAPKVLIFGATNLADGVPSRFSGSGSGTDFTLTISSLQPEDFATYYCQNVLSSPLTFGQGTKLEIKR
# modifications: vc-seco-DUBA linker-drug on the engineered cysteine at HC position 41 (Kabat); DAR 1.9
# notes: Antibody-drug conjugate of mAb3b; also called mAb3b-vc-seco-DUBA
# B2: wt-chi-mAb2 (antibody, human IgG1, kappa, V domains shown)
# VH: QVQLQQSGAELVRPGASVKLSCKASGYVFPDYEMHWVKQTPVHGLEWIGAFDPETGDTTYNQNFKGKATLTADKASSTAYMDLRSLTSGDSAVYYCARDYKYLYYYAMDNWGQGTSVTVSS
# VL: QIVLTQSPAIMSASLGERVTMTCTASSSITSSYLHWYQQKPGSSPKLWIYSTTNLASGVPGRFSGSGSGTSFSLTISSMEAEDAATYYCHQYRRSPLTFGAGTKLELKR
# notes: Mouse/human chimeric IgG1 kappa; also called wild-type chimeric antibody mAb2
# B3: 41C-chi-mAb2 (antibody, human IgG1, kappa, V domains shown)
# VH: B2 VH with P41C
# VL: B2 VL
# notes: Chimeric IgG1 kappa with an engineered cysteine at HC position 41 (Kabat); also called HC-41C chimeric antibody mAb2
# B4: wt-chi-mAb3 (antibody, human IgG1, kappa, V domains shown)
# VH: QIQLQQSGPELVKPGASVKISCKASGYTFTDYYLNWVKQRPGQGLEWIGLIFPGNDKTEYSEKFKGKATLTVDTSSSTAYIQLSRLSSEDSAIYFCSGGDYGGFVYWGQGTLVTVSS
# VL: DIQMTQSPTSLSASVGETVTITCGASENIYGALNWYQRKQGKSPQLLIYGATNLADGMSSRFSGSGSGRQFSLKINSLHPDDVATYFCQNVLSSPLTFGSGTKLEIKR
# notes: Mouse/human chimeric IgG1 kappa; also called wild-type chimeric antibody mAb3
# B5: 41C-chi-mAb3 (antibody, human IgG1, kappa, V domains shown)
# VH: B4 VH with P41C
# VL: B4 VL
# notes: Chimeric IgG1 kappa with an engineered cysteine at HC position 41 (Kabat); also called HC-41C chimeric antibody mAb3
# B6: mAb3b: HC-41C humanized anti-c-Met antibody, VH SEQ ID NO:16, VL SEQ ID NO:20 (antibody, V domains shown)
# VH: B1 VH
# VL: DIQMTQSPSSLSASVGDRVTISCGASENIYGALNWYQQQPGKAPKVLIFGATNLADGVPSRFSGSGSGTDFTLTISSLQPEDFATYYCQNVLSSPLTFGQGTKLEIK
# modifications: humanized HCVR; humanized LCVR
# B7: 41C-chi-mAb2: HC-41C chimeric anti-c-Met IgG1 antibody, VH SEQ ID NO:8, VL SEQ ID NO:4 (antibody, V domains shown)
# VH: B2 VH with P41C
# VL: QIVLTQSPAIMSASLGERVTMTCTASSSITSSYLHWYQQKPGSSPKLWIYSTTNLASGVPGRFSGSGSGTSFSLTISSMEAEDAATYYCHQYRRSPLTFGAGTKLELK
# modifications: IgG1 constant regions; HCVR - VH P41C; LCVR
# B8: wt-chi-mAb3: wild-type chimeric anti-c-Met IgG1 antibody, VH SEQ ID NO:5, VL SEQ ID NO:6 (antibody, V domains shown)
# VH: B4 VH
# VL: DIQMTQSPTSLSASVGETVTITCGASENIYGALNWYQRKQGKSPQLLIYGATNLADGMSSRFSGSGSGRQFSLKINSLHPDDVATYFCQNVLSSPLTFGSGTKLEIK
# modifications: human IgG1 constant regions; HCVR; LCVR
# B9: 41C-chi-mAb3: HC-41C chimeric anti-c-Met IgG1 antibody, VH SEQ ID NO:9, VL SEQ ID NO:6 (antibody, V domains shown)
# VH: B4 VH with P41C
# VL: B8 VL
# modifications: IgG1 constant regions; HCVR - VH P41C; LCVR
# B10: wt-chi-mAb1: wild-type chimeric anti-c-Met IgG1 antibody, VH SEQ ID NO:1, VL SEQ ID NO:2 (antibody, V domains shown)
# VH: EVQLQQSGPELLKPGASVKMSCKASGYIFTDYFMNWVKQSHGKSLEWIGRVNPKNGDITYNQKFRGKATLTVDKSLTTAYMQLNSLTSEDSAVYFCAYDGYYDGMDFWGQGTSVTVSS
# VL: ENVLTQSPAIMSASPGEKVTMTCRANSSVSSNFLHWYQQKSGASPKLWISSTSNLAFGVPPRFSGSGSGTSYSLTISSVEAEDAATYYCHQYSGHPFTFGSGTKLEIK
# modifications: human IgG1 constant regions; HCVR; LCVR
# B11: 41C-chi-mAb1: HC-41C chimeric anti-c-Met IgG1 antibody, VH SEQ ID NO:7, VL SEQ ID NO:2 (antibody, V domains shown)
# VH: B10 VH with H41C
# VL: B10 VL
# modifications: IgG1 constant regions; HCVR - VH H41C; LCVR
# B12: wt-chi-mAb2: wild-type chimeric anti-c-Met IgG1 antibody, VH SEQ ID NO:3, VL SEQ ID NO:4 (antibody, V domains shown)
# VH: B2 VH
# VL: B7 VL
# modifications: human IgG1 constant regions; HCVR; LCVR
# What was measured:
# [1] = molecular target: T1, human c-Met (HGFR), full length, on the cell surface (human, UniProt P08581 25-1390); experiment: cell-based or functional assay
# [2] = molecular target: T1, human c-Met (HGFR), full length, on the …; experiment: cell binding on c-Met positive MKN45 cells, fluorescence readout RFU (R-PE), mean ± S.E.M. of two experiments in duplicate
# [3] = molecular target: T1, human c-Met (HGFR), full length, on the …; experiment: flow cytometry on MKN45, NCI-H596 and PC-3 cells
# Method: Cellular binding of the 14 wild-type chimeric and the 14 HC-41C chimeric anti-c-Met antibodies was studied in human c-Met-positive tumor cell lines MKN45, NCI-H596 and PC-3, rhesus c-Met-positive tumor cell line 4 MBr-5, and human c-Met-negative tumor cell line MDA-MB-175-VII. Cells were used around 90% of confluence at the time of an assay, detached with Trypsin-Versene (EDTA) (Lonza) for 5-10 minutes, washed and adjusted to a concentration of 1×10⁶ cells/mL in ice-cold FACS buffer (PBS 1×, 0.1% v/w BSA, 0.02% v/v sodium azide (NaN₃)). Staining was performed in 96-well round-bottomed microtiter plates using ice-cold reagents/solutions at 4° C. to prevent the modulation and internalization of surface antigens. 100,000 cells/well were added to 96-well plates (100 μL/well) and centrifuged at 300×g for 3 minutes. In case of pre-incubation with HGF (paracrine cell lines only), the cells were resuspended in 50 ng/mL recombinant human HGF in FACS buffer (50 μL/well) and incubated for 30 minutes at 4° C., followed by two wash steps with 150 μL FACS buffer. Supernatant was discarded and cells were stained for 30 minutes with 50 μL of each antibody. Serial dilutions were made in ice-cold FACS buffer. Cells were washed twice by centrifugation at 300×g for 3 minutes and resuspended in 50 μL 6000-times diluted secondary F(ab′)₂ goat anti-human IgG (Fc fragment specific) antibody APC-conjugated (Jackson ImmunoResearch). Following a 30-minute incubation on ice, cells were washed again 2 times and resuspended in 150 μL ice-cold FACS buffer for FACS analysis. For analysis of the data, the Median Fluorescence Intensity (MFI) values were obtained.
# [4] = system: c-Met-positive tumor cell lines MKN45, NCI-H441 and PC-3; experiment: Internalization by flow cytometry (AF488 quenching); type: cell-based, human
# Method: Internalization of mAb3b was studied in human c-Met-positive tumor cell lines MKN45, NCI-H441 and PC-3. Cells (100,000 cells/well of a 96-well round bottomed microtiter plate) were incubated for 30 minutes at 4° C. with 50 μL 10 μg/mL mAb3b or appropriate non-binding control antibody. After a wash step with ice-cold complete growth medium (CGM) consisting of RPMI (Lonza) supplemented with 10% heat inactivated (HI) fetal bovine serum (FBS) (Gibco) and 80 U/mL penicillin/streptomycin (Lonza), the cells were incubated for 30 minutes at 4° C. with 50 μL Alexa Fluor 488 (AF488)-labeled Fab Fragment goat anti-human IgG (1:600 dilution) (Jackson Immunoresearch). After a wash step with ice-cold CGM, cells were resuspended in 150 μL pre-warmed CGM and transferred to polypropylene tubes, one for each time point (0 h, 0.5 h, 1 h, 3 h, 24 h) and placed into a 37° C. water bath to initiate internalization. […] Identical unquenched tubes were determined for the total fluorescence at each time point. Fluorescence intensities were determined by flow cytometry (BD FACSVerse, Franklin Lakes, NJ) and indicated as the Median Fluorescence Intensity (MFI). Internalization was quantified by calculating the percentage of internalization with the formula described. […]
# c-Met = molecular target: T2, c-Met (Homo sapiens, UniProt P08581, DEL964-1010); experiment: Functionality of chimeric antibodies, stimulation of proliferation experiment in NCI-H596 cells; type: cell-based
# T2 construct: endogenous in cells; host or cells: NCI-H596
# Text: From this perspective, although all three wt/41C chimeric mAbs were humanized and studied in further experiments, wt/41C-chi-mAb3 is the most preferred chimeric anti-c-Met antibody to further develop into an ADC for treatment of a cancer indication.
molecule,measurement,setting,value
B1,"Efficacy (%), in vitro cytotoxicity, MKN-45, -HGF",[1],84%
same,"Efficacy (%), in vitro cytotoxicity, NCI-H596, +HGF",[1],44%
same,"Efficacy (%), in vitro cytotoxicity, NCI-H596, -HGF",[1],10%
same,"Efficacy (%), in vitro cytotoxicity, PC-3, +HGF",[1],75%
same,"Efficacy (%), in vitro cytotoxicity, PC-3, -HGF",[1],75%
same,"IC50 1, in vitro cytotoxicity, PC-3, -HGF",[1],0.05 nM
same,"IC50, in vitro cytotoxicity, MKN-45, -HGF",[1],0.38 nM
same,"IC50, in vitro cytotoxicity, NCI-H596, +HGF",[1],1.47 nM
same,"IC50, in vitro cytotoxicity, NCI-H596, -HGF",[1],> 10 nM
same,"IC50, in vitro cytotoxicity, PC-3, +HGF",[1],~1.01 nM
same,EC50 (read off the curve),[2],~0.04 µg/mL
B2,binding result,[3],binds
B3,binding result,[3],binds
B4,binding result,[3],binds
B5,binding result,[3],binds
B6,Internalization,"[4]; 10 μg/mL, each of MKN45, NCI-H441, PC-3",Efficient internalization
same,time of maximum internalization,[4]; each of the cell lines,24 h
B7,Functionality,c-Met,Partial agonist
B8,Functionality,c-Met,Neutral
B9,Functionality,c-Met,Neutral
B10,Functionality,c-Met,Partial agonist
B11,Functionality,c-Met,Partial agonist
B12,Functionality,c-Met,Partial agonist
